Reference: patent US20100048413

Tested on: aspRS-OB wild type (anticodon-binding OB-fold domain of aspartyl-tRNA synthetase) (Pyrobaculum aerophilum)
Experiment: pulldown
Details: phage binding to immobilised tRNA; RNase A elution; VCS-M13 without display 1.42

asp-tRNA (P. aerophilum, in vitro transcript)
binding signal (fold recovery over beads only): 190
